T1: FcγRIIb (human, UniProt P31994 43-217)
T1 construct: extracellular domain; also called FcgRIIb; 2b
T1 sequence (looked up): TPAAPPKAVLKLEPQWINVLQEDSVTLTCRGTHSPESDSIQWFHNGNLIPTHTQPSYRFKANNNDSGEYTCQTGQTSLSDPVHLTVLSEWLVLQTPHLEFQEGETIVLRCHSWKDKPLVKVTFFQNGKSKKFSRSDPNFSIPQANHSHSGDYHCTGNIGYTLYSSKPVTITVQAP


Assays:
FcγRIa = target: T2, FcγRIa (human, UniProt P12314 16-292); assay: SPR, captured antibody; relative to GpH7-A5/GpH7-B3/GpL16-k0
T2 construct: extracellular domain; also called FcgRI; 1a

FcγRIIb = target: T1, FcγRIIb; assay: as above

T2 sequence (P12314 16-292): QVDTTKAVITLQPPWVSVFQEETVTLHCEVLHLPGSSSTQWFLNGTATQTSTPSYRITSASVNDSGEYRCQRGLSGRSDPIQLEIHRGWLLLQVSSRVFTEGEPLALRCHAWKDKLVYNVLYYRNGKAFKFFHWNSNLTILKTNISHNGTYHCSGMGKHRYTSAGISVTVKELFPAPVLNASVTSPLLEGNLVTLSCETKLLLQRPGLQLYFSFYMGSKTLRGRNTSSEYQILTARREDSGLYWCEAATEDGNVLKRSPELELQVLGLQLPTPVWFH

He/Con_1a (FcγRIa) | He/Con_2b (FcγRIIb) | Binder
90.5 relative, HeCon Ab = 100 | 48.2 relative, HeCon Ab = 100 | GpH7-A5/GpH7-B3 variant (L235_13S)/GpL16-k0 (antibody, human IgG1, kappa, IgG1 heterodimer, mutation in the GpH7-B3 chain only; also called He Ab) heavy 1: not shown heavy 2: not shown light: DIVMTQSPLSLPVTPGEPASISCQASESLVHSNRNTYLHWYLQKPGQSPQLLIYKVSNRFSGVPDRFSGSGSGTDFTLKISRVEAEDVGVYYCSQNTHVPPTFGQGTKVEIERTVAAPSVFIFPPSDEQLKSGTASVVCLLNNFYPREAKVQWKVDNALQSGNSQESVTEQDSKDSTYSLSSTLTLSKADYEKHKVYACEVTHQGLSSPVTKSFNRGEC
94.7 relative, HeCon Ab = 100 | 54.7 relative, HeCon Ab = 100 | GpH7-A5/GpH7-B3 variant (L235_05P)/GpL16-k0 (antibody, human IgG1, kappa, IgG1 heterodimer, mutation in the GpH7-B3 chain only; also called He Ab) heavy 1: not shown heavy 2: not shown light: DIVMTQSPLSLPVTPGEPASISCQASESLVHSNRNTYLHWYLQKPGQSPQLLIYKVSNRFSGVPDRFSGSGSGTDFTLKISRVEAEDVGVYYCSQNTHVPPTFGQGTKVEIERTVAAPSVFIFPPSDEQLKSGTASVVCLLNNFYPREAKVQWKVDNALQSGNSQESVTEQDSKDSTYSLSSTLTLSKADYEKHKVYACEVTHQGLSSPVTKSFNRGEC
94 relative, HeCon Ab = 100 | 42.6 relative, HeCon Ab = 100 | GpH7-A5/GpH7-B3 variant (L235_19Q)/GpL16-k0 (antibody, human IgG1, kappa, IgG1 heterodimer, mutation in the GpH7-B3 chain only; also called He Ab) heavy 1: not shown heavy 2: not shown light: DIVMTQSPLSLPVTPGEPASISCQASESLVHSNRNTYLHWYLQKPGQSPQLLIYKVSNRFSGVPDRFSGSGSGTDFTLKISRVEAEDVGVYYCSQNTHVPPTFGQGTKVEIERTVAAPSVFIFPPSDEQLKSGTASVVCLLNNFYPREAKVQWKVDNALQSGNSQESVTEQDSKDSTYSLSSTLTLSKADYEKHKVYACEVTHQGLSSPVTKSFNRGEC

The next lines start with the binder.

Binder | He/Con_1a (FcγRIa) | He/Con_2b (FcγRIIb)
GpH7-A5/GpH7-B3 variant (L235_18N)/GpL16-k0 (antibody, human IgG1, kappa, IgG1 heterodimer, mutation in the GpH7-B3 chain only; also called He Ab) heavy 1: not shown heavy 2: not shown light: DIVMTQSPLSLPVTPGEPASISCQASESLVHSNRNTYLHWYLQKPGQSPQLLIYKVSNRFSGVPDRFSGSGSGTDFTLKISRVEAEDVGVYYCSQNTHVPPTFGQGTKVEIERTVAAPSVFIFPPSDEQLKSGTASVVCLLNNFYPREAKVQWKVDNALQSGNSQESVTEQDSKDSTYSLSSTLTLSKADYEKHKVYACEVTHQGLSSPVTKSFNRGEC | 92.2 relative, HeCon Ab = 100 | 54.9 relative, HeCon Ab = 100
GpH7-A5/GpH7-B3 variant (S239_14T)/GpL16-k0 (antibody, human IgG1, kappa, IgG1 heterodimer, mutation in the GpH7-B3 chain only; also called He Ab) heavy 1: not shown heavy 2: not shown light: DIVMTQSPLSLPVTPGEPASISCQASESLVHSNRNTYLHWYLQKPGQSPQLLIYKVSNRFSGVPDRFSGSGSGTDFTLKISRVEAEDVGVYYCSQNTHVPPTFGQGTKVEIERTVAAPSVFIFPPSDEQLKSGTASVVCLLNNFYPREAKVQWKVDNALQSGNSQESVTEQDSKDSTYSLSSTLTLSKADYEKHKVYACEVTHQGLSSPVTKSFNRGEC | 101 relative, HeCon Ab = 100 | 97.3 relative, HeCon Ab = 100
GpH7-A5/GpH7-B3 variant (S267_18N)/GpL16-k0 (antibody, human IgG1, kappa, IgG1 heterodimer, mutation in the GpH7-B3 chain only; also called He Ab) heavy 1: not shown heavy 2: not shown light: DIVMTQSPLSLPVTPGEPASISCQASESLVHSNRNTYLHWYLQKPGQSPQLLIYKVSNRFSGVPDRFSGSGSGTDFTLKISRVEAEDVGVYYCSQNTHVPPTFGQGTKVEIERTVAAPSVFIFPPSDEQLKSGTASVVCLLNNFYPREAKVQWKVDNALQSGNSQESVTEQDSKDSTYSLSSTLTLSKADYEKHKVYACEVTHQGLSSPVTKSFNRGEC | 102 relative, HeCon Ab = 100 | 47.7 relative, HeCon Ab = 100
GpH7-A5/GpH7-B3 variant (L235_14T)/GpL16-k0 (antibody, human IgG1, kappa, IgG1 heterodimer, mutation in the GpH7-B3 chain only; also called He Ab) heavy 1: not shown heavy 2: not shown light: DIVMTQSPLSLPVTPGEPASISCQASESLVHSNRNTYLHWYLQKPGQSPQLLIYKVSNRFSGVPDRFSGSGSGTDFTLKISRVEAEDVGVYYCSQNTHVPPTFGQGTKVEIERTVAAPSVFIFPPSDEQLKSGTASVVCLLNNFYPREAKVQWKVDNALQSGNSQESVTEQDSKDSTYSLSSTLTLSKADYEKHKVYACEVTHQGLSSPVTKSFNRGEC | 88.7 relative, HeCon Ab = 100 | 46.8 relative, HeCon Ab = 100
GpH7-A5/GpH7-B3 variant (S239_19Q)/GpL16-k0 (antibody, human IgG1, kappa, IgG1 heterodimer, mutation in the GpH7-B3 chain only; also called He Ab) heavy 1: not shown heavy 2: not shown light: DIVMTQSPLSLPVTPGEPASISCQASESLVHSNRNTYLHWYLQKPGQSPQLLIYKVSNRFSGVPDRFSGSGSGTDFTLKISRVEAEDVGVYYCSQNTHVPPTFGQGTKVEIERTVAAPSVFIFPPSDEQLKSGTASVVCLLNNFYPREAKVQWKVDNALQSGNSQESVTEQDSKDSTYSLSSTLTLSKADYEKHKVYACEVTHQGLSSPVTKSFNRGEC | 101 relative, HeCon Ab = 100 | 86.1 relative, HeCon Ab = 100
GpH7-A5/GpH7-B3 variant (L235_06M)/GpL16-k0 (antibody, human IgG1, kappa, IgG1 heterodimer, mutation in the GpH7-B3 chain only; also called He Ab) heavy 1: not shown heavy 2: not shown light: DIVMTQSPLSLPVTPGEPASISCQASESLVHSNRNTYLHWYLQKPGQSPQLLIYKVSNRFSGVPDRFSGSGSGTDFTLKISRVEAEDVGVYYCSQNTHVPPTFGQGTKVEIERTVAAPSVFIFPPSDEQLKSGTASVVCLLNNFYPREAKVQWKVDNALQSGNSQESVTEQDSKDSTYSLSSTLTLSKADYEKHKVYACEVTHQGLSSPVTKSFNRGEC | 98 relative, HeCon Ab = 100 | 81 relative, HeCon Ab = 100
